Blank lines part the entries; values can stand above or below the substance they belong to.
Tests used:
[1] = target: tissue factor (TF) antigen (UniProt P13726); assay: SPR, His-captured Fab, TF as analyte, 1:1 fit; batch C (+)
[2] = target: tissue factor (TF) antigen (UniProt P13726); assay: SPR, His-captured Fab, TF as analyte; against wild-type D3H44 Fab; batch C (+)
[3] = target: D3H44 light chain Q124E_V133G_S176D_T178D_T180E; assay: LCCA (co-expression, SPR tag read-out), L1:L2 DNA 1:3 normalised to 1:1; competing light chain m8
[4] = target: D3H44 light chain Q124E_V133G_S176D_T178D_T180E; assay: LCCA (co-expression, SPR tag read-out), L1:L2 DNA 1:3 normalised to 1:1; competing light chain m7
[5] = target: tissue factor (TF) antigen (UniProt P13726); assay: SPR (ProteOn XPR36), Fab captured on anti-penta-His surface, TF injected as analyte, 1:1 fit; batch C (marked +); reference wild-type D3H44 Fab
[6] = target: tissue factor (TF) antigen (UniProt P13726); assay: SPR (ProteOn XPR36), Fab captured on anti-penta-His surface, TF injected as analyte, 1:1 fit; batch C (marked +)
[7] = target: D3H44 Fab heavy chain Q179R, ABD2-His6 tagged; assay: LCCA, SPR of light chain tags; L1:L2 DNA 1:9 normalized to 1:1; competing light chain m16
[8] = target: D3H44 Fab heavy chain S186K, ABD2-His6 tagged; assay: as above
[9] = target: D3H44 Fab heavy chain L143E_K145T_Q179E, ABD2-His6 tagged; assay: as above
[10] = target: D3H44 Fab heavy chain Q179R, ABD2-His6 tagged; assay: LCCA, SPR of light chain tags; L1:L2 DNA 1:3 normalized to 1:1; competing light chain m16
[11] = target: D3H44 Fab heavy chain S186K, ABD2-His6 tagged; assay: as above
[12] = target: D3H44 Fab heavy chain L143E_K145T_Q179E, ABD2-His6 tagged; assay: as above
[13] = target: D3H44 light chain V133G_S176D_T178D_T180E; assay: LCCA (co-expression, SPR tag read-out), L1:L2 DNA 1:3 normalised to 1:1; competing light chain m7
[14] = target: D3H44 light chain Q124E_V133G_S176D_T178E_T180E; assay: as above
[15] = target: D3H44 light chain Q124E_V133G_S176D_T178E_T180E; assay: LCCA (co-expression, SPR tag read-out), L1:L2 DNA 1:3 normalised to 1:1; competing light chain m8
[16] = target: tissue factor (TF) antigen (UniProt P13726); assay: SPR, Fab captured by anti-penta-His, TF injected, 1:1 fit; batch C (+)
[17] = target: tissue factor (TF) antigen (UniProt P13726); assay: SPR; log change of median KD against wild-type D3H44 Fab; batch C (+)

Change in median KD of h1l1 Fab heterodimer compared to wild type (-(log(KD design)-log(KD wt))) (log(KD) difference) [5]: 0.38
Kd [6]: 0.07 nM
Substance: D3H44 H1L1 Fab heterodimer, H1 Q39R_D146G_H172R_Q179K, L1 Q38E_Q124E_Q160E_T180E

Change in median KD of h1l1 Fab heterodimer compared to wild type (-(log(KD design)-log(KD wt))) (log(KD) difference) [5]: -0.18
Kd [6]: 0.24 nM
Substance: D3H44 H1L1 Fab heterodimer, H1 Q39R_H172R_Q179K, L1 Q38E_Q124E_Q160E_T180E

H2L2:H2L1 normalized median ratio [7]: 90%
H2L2:H2L1 normalized median ratio [8]: 89%
H1L1:H1L2 normalized median ratio [9]: 8%
H2L2:H2L1 normalized median ratio [10]: 94%
H2L2:H2L1 normalized median ratio [11]: 95%
H1L1:H1L2 normalized median ratio [12]: 8%
Substance: D3H44 light chain Q124E_T178E_T180E, HA or FLAG tagged

Kd [1]: 0.18 nM
Change in median values of KD compared to wild type (-(log(KD design)-log(KD wt))) [2]: -0.06 log
Substance: D3H44 Fab heterodimer H1L1 of LCCA Set # 9885 and 9886 (H1 S186R; L1 Q124E_S176L_T180E)

H1L1:H1L2 normalized median ratio [13]: 6 parts of 100
H1L1:H1L2 normalized median ratio [14]: 6 parts of 100
Substance: D3H44 Fab heavy chain L124E_K145M_Q179E

H2L2:H2L1 normalized median ratio [15]: 89 parts of 100
H2L2:H2L1 normalized median ratio [14]: 90 parts of 100
Substance: D3H44 Fab heavy chain L124R_D146N_Q179K

Kd [16]: 0.16 nM
Change in median values of KD of h1l1 Fab heterodimer compared to wild type (-(log(KD design)-log(KD wt))) [17]: -0.01 log units
Substance: H1L1 Fab heterodimer of LCCA sets 9812 and 9811 (D3H44 Fab, H1 Q179R, L1 Q124E_T178E_T180E)

More lines, now with the values behind:

Substance: D3H44 Fab heterodimer H1L1 of LCCA Set # 9848 and 9847 (H1 S186K; L1 Q124E_S176L_T180E)
Kd [1]: 0.15 nM
Change in median values of KD compared to wild type (-(log(KD design)-log(KD wt))) [2]: 0.03 log

Substance: D3H44 Fab heavy chain L124R_S186R
H2L2:H2L1 normalized median ratio [3]: 95 parts of 100
H2L2:H2L1 normalized median ratio [4]: 92 parts of 100

Substance: D3H44 H1L1 Fab heterodimer, H1 Q39E_L143E_K145T_Q179E, L1 Q38R_Q124R_Q160K_T178R
Change in median KD of h1l1 Fab heterodimer compared to wild type (-(log(KD design)-log(KD wt))) (log(KD) difference) [5]: -0.1
Kd [6]: 0.2 nM

Substance: D3H44 light chain Q124E_Q160E_T180E, HA or FLAG tagged
H2L2:H2L1 normalized median ratio [8]: 94%
H1L1:H1L2 normalized median ratio [9]: 22%
H2L2:H2L1 normalized median ratio [11]: 94%
H1L1:H1L2 normalized median ratio [12]: 9%

Substance: D3H44 Fab heterodimer H1L1 of LCCA Set # 9813 (H1 Q39E_K145T_H172R_Q179E; L1 Q38R_S131K)
Kd [1]: 0.18 nM
Change in median values of KD compared to wild type (-(log(KD design)-log(KD wt))) [2]: -0.05 log

Substance: H1L1 Fab heterodimer of LCCA sets 9858, 9853, 9855, 9862, 9863 and 9860 (D3H44 Fab, H1 S186K, L1 Q124E_T180E)
Kd [16]: 0.06 nM
Change in median values of KD of h1l1 Fab heterodimer compared to wild type (-(log(KD design)-log(KD wt))) [17]: 0.46 log units

Substance: H1L1 Fab heterodimer of LCCA sets 9898, 9893, 9891 and 9896 (D3H44 Fab, H1 S186R, L1 Q124E_T180E)
Kd [16]: 0.07 nM
Change in median values of KD of h1l1 Fab heterodimer compared to wild type (-(log(KD design)-log(KD wt))) [17]: 0.36 log units

Reference: US11306156
